Assay results published in patent US20230143031A1 (published 2023).

Molecular target: T1, NY-ESO antigen (NY-ESO-1) peptide on HLA-A*02:01 (human)
T1 peptide: SLLMWITQC
Assay: multimer staining

B1: anti-NY-ESO TCR (TCR, V domains shown)
Valpha: KQEVTQIPAALSVPEGENLVLNCSFTDSAIYNLQWFRQDPGKGLTSLLLIQSSQREQTSGRLNASLDKSSGRSTLYIAASQPGDSATYLCAGDNNAGNMLTFGGGTRLMVKP
Vbeta: DAMVIQNPRYQVTQFGKPVTLSCSQTLNHNVMYWYQQKSSQAPKLLFHYYDKDFNNEADTPDNFQSRRPNTSFCFLDIRSPGLGDAAMYLCATSVTDGTALTGELFFGEGSRLTVL
binding result: recognises
